The values that follow come from patent US20230295293A1 (published 2023).

The labels stand for the following.
B1: AB1370117 hIgG1 (antibody, V domains shown)
VH: QVQLQQSGPGLVKPSQTLSLTCAISGDSVSSDSATWNWIRQSPSRGLEWLGRTYYRSKWYSDYAVSVKSRITINPDTSKNQFSLQLNSVTPEDTAVYFCARGGAPFDYWGQGTLVTVSS
VL: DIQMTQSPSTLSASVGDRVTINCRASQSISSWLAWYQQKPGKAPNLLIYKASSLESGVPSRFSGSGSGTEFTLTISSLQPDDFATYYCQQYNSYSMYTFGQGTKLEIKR
B2: AB1370026 hIgG1 (antibody, V domains shown)
VH: EVQLVESGGGLVKPGGSLRLSCAASGFTFSSYAMSWVRQAPGKGLEWVSSISSGRSYIYYADSVKGRFTISRDNAKNSLYLKMNSLRDEDTAVYYCAREMQQLALDYWGQGTLVTVSS
VL: DIQMTQSPSSLSASVGDRVTITCRASQGISNFLAWFQQAPGKAPKSLIYAASSLQSGVPSKFSGSGSGTDFTLTISSLQPEDFATYYCQQYNSYPFTFGQGTKLEIKR
B3: AB1370083 hIgG1 (antibody, V domains shown)
VH: EVQLVESGGGLVKPGGSLRLSCAASGFTFSSYNMNWVRQAPGKGLEWVSSISSGSSYIYYADSMKGRFTISRDNAKNSLFLQMNSLRAEDTAVYYCARGMTTLTFDYWGQGTLVTVSS
VL: B2 VL with N31T, A39K, G68E, N92I, F96L, Q100G, L104V
B4: AB1370095 hIgG1 (antibody, V domains shown)
VH: B3 VH with N33S, G54R, I58V, M64V, F80Y
VL: B2 VL with N31S, A39K, F96L, Q100G, L104V
B5: AB1370035 hIgG1 (antibody, V domains shown)
VH: QVQLQQSGPGLVKPSQTLSLTCAISGDSVSSNSAAWNWIRQSPSRGLEWLGRTYYRSNWYNDYTLSVKSRITVNPDTSKNQFSLQLNSVTPEDTAVYYCVRGVGRFDSWGQGTLVTVSS
VL: DIQMTQSPSTLSASVGDRVIITCRASQSISSWLAWYQQKPGKAPKLLIYKASSLESGVPSRFSGSGSGTEFTLTITSLQPDDFASYYCQEYKTYSIFTFGPGTKVDIKR
B6: AB1370049 hIgG1 (antibody, V domains shown)
VH: B1 VH with Q1L, S61N, F98Y, G103V, A104G, P105S
VL: not shown
B7: AB1370117 (hybridoma IgG) (antibody, V domains shown)
VH: B1 VH
VL: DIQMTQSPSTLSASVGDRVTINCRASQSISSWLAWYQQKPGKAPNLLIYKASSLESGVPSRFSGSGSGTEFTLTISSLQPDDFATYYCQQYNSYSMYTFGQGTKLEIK
notes: IgG from hybridoma of Del-1 humanised mouse, tested as supernatant ('mouse IgG', detected with anti-mouse IgG) or Phynexus purified
B8: AB1370026 (hybridoma IgG) (antibody, V domains shown)
VH: B2 VH
VL: DIQMTQSPSSLSASVGDRVTITCRASQGISNFLAWFQQAPGKAPKSLIYAASSLQSGVPSKFSGSGSGTDFTLTISSLQPEDFATYYCQQYNSYPFTFGQGTKLEIK
notes: as for B7
B9: AB1370083 (hybridoma IgG) (antibody, V domains shown)
VH: B3 VH
VL: B8 VL with N31T, A39K, G68E, N92I, F96L, Q100G, L104V
notes: as for B7
B10: AB1370095 (hybridoma IgG) (antibody, V domains shown)
VH: B3 VH with N33S, G54R, I58V, M64V, F80Y
VL: B8 VL with N31S, A39K, F96L, Q100G, L104V
notes: as for B7
B11: AB1370035 (hybridoma IgG) (antibody, V domains shown)
VH: B5 VH
VL: DIQMTQSPSTLSASVGDRVIITCRASQSISSWLAWYQQKPGKAPKLLIYKASSLESGVPSRFSGSGSGTEFTLTITSLQPDDFASYYCQEYKTYSIFTFGPGTKVDIK
notes: as for B7
B12: AB1370049 (hybridoma IgG) (antibody, V domains shown)
VH: B1 VH with Q1L, S61N, F98Y, G103V, A104G, P105S
VL: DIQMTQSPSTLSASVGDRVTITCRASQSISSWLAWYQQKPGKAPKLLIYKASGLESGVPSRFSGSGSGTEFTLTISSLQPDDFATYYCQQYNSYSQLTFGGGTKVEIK
notes: as for B7

Residue numbers refer to the chain shown, from its start.

T3 sequence (chain, as listed by the source limits assumed): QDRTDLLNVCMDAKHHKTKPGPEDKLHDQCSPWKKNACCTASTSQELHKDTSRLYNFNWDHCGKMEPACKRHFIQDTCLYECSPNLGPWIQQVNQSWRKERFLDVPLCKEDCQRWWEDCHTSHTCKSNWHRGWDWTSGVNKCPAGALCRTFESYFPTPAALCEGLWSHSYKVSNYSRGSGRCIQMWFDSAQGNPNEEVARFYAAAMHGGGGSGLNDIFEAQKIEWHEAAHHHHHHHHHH
T4 sequence (chain, as listed by the source limits assumed): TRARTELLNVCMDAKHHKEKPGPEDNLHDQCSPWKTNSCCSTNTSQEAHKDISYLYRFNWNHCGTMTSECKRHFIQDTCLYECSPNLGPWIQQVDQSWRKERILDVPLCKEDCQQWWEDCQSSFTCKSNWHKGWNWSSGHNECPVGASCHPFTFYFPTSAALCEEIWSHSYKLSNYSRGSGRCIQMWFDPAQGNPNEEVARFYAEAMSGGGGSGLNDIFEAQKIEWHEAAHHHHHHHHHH
T5 sequence (chain, as listed by the source limits assumed): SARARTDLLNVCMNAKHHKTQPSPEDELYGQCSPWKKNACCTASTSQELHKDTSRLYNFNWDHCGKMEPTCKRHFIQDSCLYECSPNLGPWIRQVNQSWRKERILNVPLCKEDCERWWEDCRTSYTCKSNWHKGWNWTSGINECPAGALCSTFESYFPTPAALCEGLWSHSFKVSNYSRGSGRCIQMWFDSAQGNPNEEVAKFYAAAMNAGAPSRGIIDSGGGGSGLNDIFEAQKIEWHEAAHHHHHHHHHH
T1 sequence (chain, as listed by the source limits assumed): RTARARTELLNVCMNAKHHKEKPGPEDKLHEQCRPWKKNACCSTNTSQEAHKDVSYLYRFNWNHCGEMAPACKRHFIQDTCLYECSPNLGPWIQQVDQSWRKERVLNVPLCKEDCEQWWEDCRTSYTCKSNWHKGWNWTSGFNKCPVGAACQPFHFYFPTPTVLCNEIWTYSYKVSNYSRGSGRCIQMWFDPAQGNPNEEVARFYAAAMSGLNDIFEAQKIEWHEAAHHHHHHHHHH

One assay concerns the target T1, Cyno FRα ECD-Avi-His (cynomolgus monkey, biotin on the Avi-tag (BirA) in the HTRF assays).
T1 construct: Soluble region with C-terminal Avi and His tags
As to the kind of experiment: SPR (Biacore T200, 25°C); antibody captured on Protein A, FRα ECD as analyte. The procedure: (§1) Protein A was covalently immobilised to a CM5 chip surface using standard amine coupling techniques at a concentration of 50 μg/ml in 10 mM Sodium acetate, pH 4.0. The antibody was captured onto the Protein A surface in HBS-EP+ buffer, pH 7.4 at 10 μl/min to enable FRα ECD binding. The FRα ECD was serially diluted (0.4 nM-100 nM human FRα ECD; 0.8 nM-200 nM cyno FRα ECD; 30 nM-4000 nM mouse FRα ECD and rat FRα ECD) in HBS-EP+ buffer, pH 7.4 and flowed over the chip at 50 μl/min, with 2 minutes association and 8 minutes dissociation. The chip surface was fully regenerated with pulses of 3 M MgCl₂ to remove captured antibody together with any bound FRα ECD. Multiple buffer-only injections were made under the same conditions to allow for double reference subtraction of the final sensorgram sets, which were analysed using Biacore T200 Evaluation Software to derive equilibrium dissociation constants.
B1: the Kd (in general, the constant that tells how readily two partners part at equilibrium) came to 5.1 nM; the koff – broadly, the first-order rate constant of dissociation – amounted to 0.00187 s⁻¹; the kon (in general, the rate constant with which the complex forms) was 364000 M⁻¹ s⁻¹.
The molecule B2 displayed a Kd of 1.8 nM, a koff of 0.000342 s⁻¹ and a kon of 195000 M⁻¹ s⁻¹.
The corresponding values for B3 are 1.56 nM, 0.00016 s⁻¹ and 101000 M⁻¹ s⁻¹.
For B4 the same measures were 19.1 nM, 0.00183 s⁻¹ and 95800 M⁻¹ s⁻¹.
B5 registered a Kd of 1.1 nM, a koff of 0.000508 s⁻¹ and a kon of 475000 M⁻¹ s⁻¹.
In turn, B6 showed a Kd of 36.9 nM.

The target of another assay is T2, Human FRα ECD-Avi-His (human, biotin on the Avi-tag (BirA) in the HTRF assays).
T2 construct: also called biotinylated human FRα; folate receptor alpha
T2 sequence (chain, as listed by the source limits assumed): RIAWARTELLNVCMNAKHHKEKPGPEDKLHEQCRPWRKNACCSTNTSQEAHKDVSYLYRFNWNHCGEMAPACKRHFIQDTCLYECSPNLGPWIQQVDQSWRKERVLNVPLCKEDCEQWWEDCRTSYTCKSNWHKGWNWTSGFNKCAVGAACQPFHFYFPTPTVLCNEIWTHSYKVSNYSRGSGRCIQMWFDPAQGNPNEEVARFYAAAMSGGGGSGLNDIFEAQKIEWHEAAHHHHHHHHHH
The assay is described as above. The procedure:
as §1
B1 yielded a Kd of 2.6 nM, a koff of 0.000762 s⁻¹ and a kon of 293000 M⁻¹ s⁻¹.
With B2, the Kd amounted to 1.3 nM, the koff worked out at 0.000354 s⁻¹ and the kon is 279000 M⁻¹ s⁻¹.
The corresponding values for B3 are 0.93 nM, 0.000135 s⁻¹ and 145000 M⁻¹ s⁻¹.
For B4 the same measures were 13.5 nM, 0.00129 s⁻¹ and 95700 M⁻¹ s⁻¹.
The corresponding values for B5 are 0.93 nM, 0.000527 s⁻¹ and 568000 M⁻¹ s⁻¹.

The next assay concerns the target T3, Human FRβ ECD-Avi-His (human, biotin on the Avi-tag (BirA) in the HTRF assays).
T3 construct: Soluble region with C-terminal Avi and His tags; also called Human FRß
As to the kind of experiment: HTRF antigen binding assay; hybridoma supernatant, 1 nM biotinylated antigen. The procedure: (§2) HTRF assays were performed in 384-well white shallow well non-binding plates (Corning, 4513) in assay buffer containing phosphate-buffered saline (PBS) (Life Technologies, 14190), 0.100 v/v bovine serum albumin (BSA) (Sigma, A9576), and 0.4 M potassium fluoride (VWR International, 26820).
(§3) Supernatants containing mouse IgG from hybridoma cells were incubated at a final assay dilution of 25% with 0.5 nM streptavidin-cryptate (CisBio, 610SAKLB), anti-mouse IgG AF647 (Jackson ImmunoResearch, 115-605-164) and 1 nM biotinylated human FRα, cyno FRα, mouse FRα, human FRβ or human FRγ to give a final assay volume of 10 μl, for 4 hours at room temperature before fluorescence was measured.
(In general: Time-resolved FRET reads energy transfer from a long-lived donor to a nearby acceptor.)
Take B7: the binding result is recorded as “no binding”.
The same measure, in the same setting: the result for B8 reads “no binding”.
On the same count and under the same terms, under B9 stands “no binding”; under B10, “no binding”.
The same measure, in the same setting: under B11 stands “no binding”.
In the case of B12, the binding result is “no binding”.

A further assay has as its target T4, Mouse FRα ECD-Avi-His (mouse, biotin on the Avi-tag (BirA) in the HTRF assays).
T4 construct: Soluble region with C-terminal Avi and His tags
Described as above. The procedure: as §2, §3
B7: the binding result is “no binding”.
Still for that read-out and setting: the result for B8 reads “no binding”; that for B9, “no binding”; that for B10, “no binding”.
On the same count and under the same terms, under B11 stands “no binding”; under B12, “no binding”.

The next assay concerns the target T5, Human FRγ ECD-Avi-His (human, biotin on the Avi-tag (BirA) in the HTRF assays).
T5 construct: Soluble region with C-terminal Avi and His tags
The description is as above. The procedure:
as §2, §3
As to B7, the binding result is “no binding”.
Still for that read-out and setting: the result for B8 reads “no binding”; that for B9, “no binding”; that for B10, “no binding”.
As to B11, the binding result is given as “no binding”.
The same measure, in the same setting: the result for B12 reads “no binding”.

Another assay addresses T2, Human FRα ECD-Avi-His. Put plainly: MOv19 HTRF epitope competition assay; accelerated stability study.
Turning to B1, the “fold difference (IC50 45°C against 4°C)” value was 1.46 fold.
The same measure, in the same setting: under B2 stands 1 fold.
Still for that read-out and setting: the result for B3 reads 1.3 fold; that for B4, 0.85 fold.
As for B5, the “fold difference (IC50 45°C against 4°C)” value was 1.23 fold.

The next assay addresses T2, Human FRα ECD-Avi-His. Put plainly: HTRF epitope competition assay, geomean n>2; competitor DyLight 650 labelled Comparator Antibody 3. The procedure:
as §2
(§4) HTRF epitope competition assays were set up using a titration of test IgG, 1 nM streptavidin cryptate, biotinylated human FRα and DyLight 650 labelled IgG to assay volume of 10 μl. […] Assay plates were incubated for 3-4 h at room temperature prior to fluorescence measurement.
Turning to B1, the IC50 (as a rule, the concentration that gives 50% inhibition) was 1.83 nM. That is a single-digit nanomolar value.
Still for that read-out and setting: the result for B5 reads 0.285 nM.

Another assay addresses T2, Human FRα ECD-Avi-His. Put plainly: HTRF epitope competition assay, geomean n>2; competitor DyLight 650 labelled Comparator Antibody 1. The procedure:
as §2, §4
In turn, B2 displayed an IC50 of 0.032 nM.
Same read-out and setting: the result for B3 reads 0.0296 nM; that for B4, 0.363 nM.

In the next assay the target is T2, Human FRα ECD-Avi-His. Put plainly: HTRF epitope competition assay, geomean n>2; competitor DyLight 650 labelled Comparator Antibody 2. The procedure: as §2, §4
Molecule B1 gave an IC50 of 9.33 nM. This counts as single-digit nanomolar.
Still for that read-out and setting: the result for B2 reads 0.177 nM; that for B3, 0.0806 nM; that for B4, 4.15 nM.
B5 displayed an IC50 of 1.46 nM.

The target in another assay is T2, Human FRα ECD-Avi-His. Put plainly: MOv19 HTRF epitope competition assay, geomean; IgG kept 2 weeks at 4°C; competitor MOv19.
In turn, B1 had a concentration for half-maximal inhibition (IC50) of 3.75 nM.
With B2, the IC50 came to 0.711 nM.
Same read-out and setting: under B3 stands 0.0511 nM; under B4, 5.07 nM.
The same measure, in the same setting: the result for B5 reads 0.945 nM.

The target of another assay is T1, Cyno FRα ECD-Avi-His. As to the kind of experiment: SPR (Biacore T200). The procedure: as §1
Background: Surface plasmon resonance follows binding to a sensor surface in real time, without labels.
For B1, the “fold difference of affinity, cyno FRα against human FRα” value was at most 2.5 fold.
Same read-out and setting: under B2 stands at most 2.5 fold; under B3, at most 2.5 fold; under B4, at most 2.5 fold.
On the same count and under the same terms, the result for B5 reads at most 2.5 fold.

In the next assay the target is T2, Human FRα ECD-Avi-His. As to the kind of experiment: MOv19 HTRF epitope competition assay, geomean; IgG kept 2 weeks at 45°C; competitor MOv19.
In turn, B1 returned an IC50 of 5.48 nM.
Same read-out and setting: the result for B2 reads 0.708 nM; that for B3, 0.0665 nM; that for B4, 4.31 nM.
On the same count and under the same terms, the result for B5 reads 1.16 nM.
